# B1: ASC-1 (also known as TRIP4), untagged (natural protein, human, UniProt Q15650 1-581, looked up)
# chain: MAVAGAVSGEPLVHWCTQQLRKTFGLDVSEEIIQYVLSIESAEEIREYVTDLLQGNEGKKGQFIEELITKWQKNDQELISDPLQQCFKKDEILDGQKSGDHLKRGRKKGRNRQEVPAFTEPDTTAEVKTPFDLAKAQENSNSVKKKTKFVNLYTREGQDRLAVLLPGRHPCDCLGQKHKLINNCLICGRIVCEQEGSGPCLFCGTLVCTHEEQDILQRDSNKSQKLLKKLMSGVENSGKVDISTKDLLPHQELRIKSGLEKAIKHKDKLLEFDRTSIRRTQVIDDESDYFASDSNQWLSKLERETLQKREEELRELRHASRLSKKVTIDFAGRKILEEENSLAEYHSRLDETIQAIANGTLNQPLTKLDRSSEEPLGVLVNPNMYQSPPQWVDHTGAASQKKAFRSSGFGLEFNSFQHQLRIQDQEFQEGFDGGWCLSVHQPWASLLVRGIKRVEGRSWYTPHRGRLWIAATAKKPSPQEVSELQATYRLLRGKDVEFPNDYPSGCLLGCVDLIDCLSQKQFKEQFPDISQESDSPFVFICKNPQEMVVKFPIKGNPKIWKLDSKIHQGAKKGLMKQNKAV
# notes: ASC-1 (TRIP4), human, subunit of the ASC-1 complex (ASCC); Untagged, cloned with primers from the start codon to the stop codon; Plasmid pUCDM-ASCC2-FLAG-TRIP4; source: Sf21 insect cells, baculovirus, co-expressed with the other ASCC subunits; purified (NiNTA, anti-FLAG M2, heparin Sepharose)
# B2: ASCC2 with a C-terminal FLAG tag (natural protein, human, UniProt Q9H1I8 1-757, looked up)
# chain: MPALPLDQLQITHKDPKTGKLRTSPALHPEQKADRYFVLYKPPPKDNIPALVEEYLERATFVANDLDWLLALPHDKFWCQVIFDETLQKCLDSYLRYVPRKFDEGVASAPEVVDMQKRLHRSVFLTFLRMSTHKESKDHFISPSAFGEILYNNFLFDIPKILDLCVLFGKGNSPLLQKMIGNIFTQQPSYYSDLDETLPTILQVFSNILQHCGLQGDGANTTPQKLEERGRLTPSDMPLLELKDIVLYLCDTCTTLWAFLDIFPLACQTFQKHDFCYRLASFYEAAIPEMESAIKKRRLEDSKLLGDLWQRLSHSRKKLMEIFHIILNQICLLPILESSCDNIQGFIEEFLQIFSSLLQEKRFLRDYDALFPVAEDISLLQQASSVLDETRTAYILQAVESAWEGVDRRKATDAKDPSVIEEPNGEPNGVTVTAEAVSQASSHPENSEEEECMGAAAAVGPAMCGVELDSLISQVKDLLPDLGEGFILACLEYYHYDPEQVINNILEERLAPTLSQLDRNLDREMKPDPTPLLTSRHNVFQNDEFDVFSRDSVDLSRVHKGKSTRKEENTRSLLNDKRAVAAQRQRYEQYSVVVEEVPLQPGESLPYHSVYYEDEYDDTYDGNQVGANDADSDDELISRRPFTIPQVLRTKVPREGQEEDDDDEEDDADEEAPKPDHFVQDPAVLREKAEARRMAFLAKKGYRHDSSTAVAGSPRGHGQSRETTQERRKKEANKATRANHNRRTMADRKRSKGMIPS
# notes: ASCC2, human, subunit of the ASC-1 complex (ASCC); Cloned with primers from the start codon to the last codons before the FLAG tag and stop; Plasmid pUCDM-ASCC2-FLAG-TRIP4; also called ASCC2-FLAG; source: Sf21 insect cells, baculovirus, co-expressed with the other ASCC subunits; purified (NiNTA, anti-FLAG M2, heparin Sepharose); not shown: FLAG, C-terminal, kept
# Assays:
# [1] = target: T1, ASCC1 with a C-terminal 8-histidine tag (human, UniProt Q8N9N2-2 1-357); test: tandem affinity co-purification (NiNTA, anti-FLAG M2, heparin Sepharose); four subunits co-expressed in Sf21 insect cells; lysate bound to NiNTA through ASCC1-8His (washed at 300 mM NaCl), the eluate bound to anti-FLAG M2 resin through ASCC2-FLAG and eluted with FLAG peptide, then heparin Sepharose; elution fractions shown on a gel; 4°C, 20 mM Tris-HCl 8.0, 10% glycerol; settings: partners not purified
# T1 construct: ASCC1, human, subunit of the ASC-1 complex (ASCC); Plasmid pFL-ASCC1-8His-ASCC3, fused by Cre with pUCDM-ASCC2-FLAG-TRIP4; The isoform is inferred from the printed reverse primer; also called ASCC1-8His; source: Sf21 insect cells, baculovirus, co-expressed with the other ASCC subunits; purified (NiNTA, anti-FLAG M2, heparin Sepharose); not shown: His8, C-terminal, kept
# T1 sequence (looked up): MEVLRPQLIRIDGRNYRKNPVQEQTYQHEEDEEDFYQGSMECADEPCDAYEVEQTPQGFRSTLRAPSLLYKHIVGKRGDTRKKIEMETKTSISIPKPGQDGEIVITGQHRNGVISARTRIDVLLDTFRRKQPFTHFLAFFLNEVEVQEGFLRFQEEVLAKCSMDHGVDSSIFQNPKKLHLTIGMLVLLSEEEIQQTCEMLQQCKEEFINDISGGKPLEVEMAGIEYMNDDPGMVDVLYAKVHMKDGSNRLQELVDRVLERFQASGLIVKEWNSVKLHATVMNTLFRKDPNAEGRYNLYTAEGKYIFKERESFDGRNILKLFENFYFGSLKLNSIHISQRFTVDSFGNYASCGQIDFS
# [2] = target: B2; test: as above; settings: partners not purified
Binder,stoichiometry N [1],stoichiometry N [2]
B1,~1,~1
B2,~1,

# Reference: publication PMC7447978, “The ASC-1 Complex Disassembles Collided Ribosomes” (Molecular Cell, 2020)
